Target: IL-2Rαβ (UniProt P01589)
Experiment: in vitro binding affinity against IL-2 as standard; method presumably the SPR of Example 2 (Biacore T-100, receptor-Fc captured, EC50 from RU against concentration)

Sequence of UniProt P01589 (P01589 22-213 limits assumed): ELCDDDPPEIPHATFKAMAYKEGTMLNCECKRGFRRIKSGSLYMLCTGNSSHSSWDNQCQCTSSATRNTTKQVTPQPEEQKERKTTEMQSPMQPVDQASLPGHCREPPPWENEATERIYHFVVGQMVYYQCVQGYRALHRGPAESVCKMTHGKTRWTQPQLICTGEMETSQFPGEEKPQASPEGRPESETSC

RSLAIL-2 (rIL-2 with the aldesleukin sequence, releasably PEGylated with mPEG2-C2-Fmoc-20kD-NHS) (from UniProt P60568 22-153) (ligand)
fold decrease in affinity relative to IL-2: 60 fold

Source: patent publication US20200016206A1
